Laboratory results reported in patent publication US20250388664A1 (BIOARCTIC, published 2025).
Changes are numbered by the printed parent chain. Numbers in names are those of the source.

T1: h/m apical domain chimera (SEQ ID NO:112) (human/mouse chimera)
T1 construct: also called chimeric TfR1 consisting of human apical domain grafted on mouse TfR1 ectodomain
T1 chain: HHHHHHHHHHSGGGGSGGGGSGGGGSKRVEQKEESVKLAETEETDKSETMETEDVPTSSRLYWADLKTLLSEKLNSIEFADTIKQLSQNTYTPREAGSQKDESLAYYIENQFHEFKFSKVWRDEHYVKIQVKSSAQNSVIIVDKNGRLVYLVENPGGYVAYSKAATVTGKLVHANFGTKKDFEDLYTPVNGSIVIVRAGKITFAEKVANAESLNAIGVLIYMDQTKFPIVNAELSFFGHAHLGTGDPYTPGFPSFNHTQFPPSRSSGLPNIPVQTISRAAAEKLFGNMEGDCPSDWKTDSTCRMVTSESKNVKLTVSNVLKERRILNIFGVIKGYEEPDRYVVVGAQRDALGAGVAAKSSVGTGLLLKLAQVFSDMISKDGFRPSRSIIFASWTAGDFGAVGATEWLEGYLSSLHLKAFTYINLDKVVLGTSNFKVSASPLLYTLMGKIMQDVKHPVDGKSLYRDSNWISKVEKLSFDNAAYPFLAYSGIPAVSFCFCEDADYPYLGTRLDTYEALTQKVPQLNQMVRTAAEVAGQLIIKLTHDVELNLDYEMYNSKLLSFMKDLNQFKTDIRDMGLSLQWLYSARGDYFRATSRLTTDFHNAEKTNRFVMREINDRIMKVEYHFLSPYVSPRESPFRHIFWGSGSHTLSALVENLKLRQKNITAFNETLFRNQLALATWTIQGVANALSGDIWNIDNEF

B1: H2L7-K12V/R83T (antibody, human IgG1, kappa)
heavy: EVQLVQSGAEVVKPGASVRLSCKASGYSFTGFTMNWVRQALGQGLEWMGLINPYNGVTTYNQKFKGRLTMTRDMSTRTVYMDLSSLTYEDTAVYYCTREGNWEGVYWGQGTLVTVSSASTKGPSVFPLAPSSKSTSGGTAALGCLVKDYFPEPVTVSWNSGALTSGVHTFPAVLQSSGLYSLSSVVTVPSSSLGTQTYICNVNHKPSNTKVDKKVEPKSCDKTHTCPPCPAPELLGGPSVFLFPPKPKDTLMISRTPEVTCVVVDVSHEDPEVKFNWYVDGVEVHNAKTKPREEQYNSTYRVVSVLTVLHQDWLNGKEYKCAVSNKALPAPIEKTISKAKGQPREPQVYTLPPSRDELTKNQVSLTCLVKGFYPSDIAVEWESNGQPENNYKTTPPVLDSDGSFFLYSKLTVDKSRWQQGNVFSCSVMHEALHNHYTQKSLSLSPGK
light: EIVLTQSPLSLSVTLGQSASISCRSSQSLLDSNGKTYLHWFILRPGQSPRRLIYLVSILDSGVPDRFSGSGSGTDFTLKISRVEAEDVGVYYCVQGTHFPFTFGSGTKLEIKRTVAAPSVFIFPPSDEQLKSGTASVVCLLNNFYPREAKVQWKVDNALQSGNSQESVTEQDSKDSTYSLSSTLTLSKADYEKHKVYACEVTHQGLSSPVTKSFNRGEC
notes: VH variant of H2L7; VL and constant domains identical to H2L7
B2: H2L7-K12V/R71A/R83T (antibody, human IgG1, kappa)
heavy: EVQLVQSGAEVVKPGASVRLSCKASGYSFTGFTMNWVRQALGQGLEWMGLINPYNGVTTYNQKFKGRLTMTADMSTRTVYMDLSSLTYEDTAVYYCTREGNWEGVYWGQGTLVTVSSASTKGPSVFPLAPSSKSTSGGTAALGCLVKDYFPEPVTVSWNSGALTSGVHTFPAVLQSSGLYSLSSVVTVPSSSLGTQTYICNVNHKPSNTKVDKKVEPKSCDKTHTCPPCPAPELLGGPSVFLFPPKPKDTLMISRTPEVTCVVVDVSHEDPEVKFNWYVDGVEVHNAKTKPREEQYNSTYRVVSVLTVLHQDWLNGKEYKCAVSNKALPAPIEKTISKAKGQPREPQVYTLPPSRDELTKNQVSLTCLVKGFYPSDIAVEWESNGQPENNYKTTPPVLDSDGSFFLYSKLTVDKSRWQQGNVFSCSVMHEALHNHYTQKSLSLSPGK
light: B1 light
notes: as for B1
B3: H2L7-R71A (antibody, human IgG1, kappa)
heavy: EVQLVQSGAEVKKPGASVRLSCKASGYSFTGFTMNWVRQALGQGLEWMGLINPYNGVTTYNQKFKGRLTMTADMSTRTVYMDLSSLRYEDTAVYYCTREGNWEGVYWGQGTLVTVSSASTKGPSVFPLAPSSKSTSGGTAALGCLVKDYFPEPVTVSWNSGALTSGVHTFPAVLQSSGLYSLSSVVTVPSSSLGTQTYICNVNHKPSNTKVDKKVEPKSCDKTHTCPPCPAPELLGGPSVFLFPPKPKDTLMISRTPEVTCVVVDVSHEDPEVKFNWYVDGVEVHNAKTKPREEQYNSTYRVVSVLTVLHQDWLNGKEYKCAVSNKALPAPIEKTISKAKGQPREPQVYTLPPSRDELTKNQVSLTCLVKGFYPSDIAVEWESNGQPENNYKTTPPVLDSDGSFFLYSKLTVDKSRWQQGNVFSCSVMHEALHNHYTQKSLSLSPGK
light: B1 light
notes: as for B1
B4: H2L7-R71A/R83T (antibody, human IgG1, kappa)
heavy: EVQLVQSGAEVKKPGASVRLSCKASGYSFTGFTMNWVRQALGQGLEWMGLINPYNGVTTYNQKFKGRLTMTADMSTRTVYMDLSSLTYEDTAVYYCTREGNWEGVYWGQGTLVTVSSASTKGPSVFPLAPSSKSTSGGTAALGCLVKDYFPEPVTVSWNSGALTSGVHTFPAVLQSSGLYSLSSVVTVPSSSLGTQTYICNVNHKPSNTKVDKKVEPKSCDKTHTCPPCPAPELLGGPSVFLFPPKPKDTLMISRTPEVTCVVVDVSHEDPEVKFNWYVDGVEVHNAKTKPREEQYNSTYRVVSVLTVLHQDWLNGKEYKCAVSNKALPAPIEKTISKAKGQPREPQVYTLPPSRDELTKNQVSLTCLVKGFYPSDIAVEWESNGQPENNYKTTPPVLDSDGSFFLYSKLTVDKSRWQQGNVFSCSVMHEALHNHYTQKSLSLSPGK
light: B1 light
notes: as for B1
B5: 26D3 (antibody, V domains shown)
VH: EVQLQQFGVELVKPGASVKISCKASGYIFTDYNMDWVKQSHGKSLEWIGDINPDYDTTSYNEKFKGKATLTVDKSSSTAYMELRSLTSEDTAVYYCARGGYSGSSYYHPMDYWGQGTSVTVSS
VL: DIVMSQSPSSLAVSVGEKITMSCKSSQSLLYSTNQKNYLAWYQQKPGQSPELLIYWASTRESGVPDRFTGSGSGTDFTLTISNVRAEDLAVYYCQQYFIYPRTFGGGTKLEIK
notes: also called mouse antibody 26D3; clone 26D3
B6: h26D3-LC1_DS, VL-first (scFv)
scFv: DIQMTQSPSSVSASVGDRVTITCKSSQSLLASTNQKNYLAWYQQKPGKAPKLLIYWASTRESGVPSRFSGSGSGTDFTLTISSLQPEDFATYYCQQYFIYPRTFGCGTKVEIKGGGGSGGGGSGGGGSGGGGSEVQLVQSGAEVKKPGSSVKVSCKASGYIFTDYNMDWVRQAPGQCLEWIGDINPDYDTTSYNEKFKGRATLTVDKSTSTAYMELSSLRSEDTAVYYCARGGYSGSSYYHPMDYWGQGTLVTVSS
B7: h26D3-HC6 (scFv)
scFv: EVQLVQSGAEVKKPGSSVKVSCKASGYIFTDYNMDWVRQAPGQGLEWIGDINPDADTTSYNEKFKGRATLTVDKSTSTAYMELSSLRSEDTAVYYCARGGYSGSSYYHPMDYWGQGTLVTVSSGGGGSGGGGSGGGGSDIQMTQSPSSVSASVGDRVTITCKSSQSLLYSTNQKNYLAWYQQKPGKAPKLLIYWASTRESGVPSRFSGSGSGTDFTLTISSLQPEDFATYYCQQYFIYPRTFGQGTKVEIK
notes: also called scFv h26D3-HC6
B8: h26D3-HC6_DS (scFv)
scFv: B7 scFv with G44C, Q244C
B9: h26D3-LC1 (scFv)
scFv: B7 scFv with A55Y, Y169A
B10: h26D3-HC6, VL-first (scFv)
scFv: DIQMTQSPSSVSASVGDRVTITCKSSQSLLYSTNQKNYLAWYQQKPGKAPKLLIYWASTRESGVPSRFSGSGSGTDFTLTISSLQPEDFATYYCQQYFIYPRTFGQGTKVEIKGGGGSGGGGSGGGGSEVQLVQSGAEVKKPGSSVKVSCKASGYIFTDYNMDWVRQAPGQGLEWIGDINPDADTTSYNEKFKGRATLTVDKSTSTAYMELSSLRSEDTAVYYCARGGYSGSSYYHPMDYWGQGTLVTVSS

These binders were tested against T2, AβpE3-28 monomer (UniProt P05067 674-699, pyroglutamate at position 3 (N-terminal residue)) (assay: inhibition ELISA, antigen titrated in solution, AβpE3-40 coat).
T2 construct: range 3-28 (Aβ numbering)
T2 sequence (P05067 674-699): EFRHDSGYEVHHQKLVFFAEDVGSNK
Protocol: (§1) The humanized antibodies were incubated at a fixed concentration (0.5 μg/ml) with titrating concentrations of the different Aβ antigens. After incubation for 45 min at 900 rpm to reach equilibrium, the antibody-Aβ samples were added to a blocked and washed ELISA plate with an AβpE3-40 coat (0.5 μM). The samples were incubated on the plate for 25 min without shaking followed by washing, incubation with detection antibody, another washing step and finally incubation with alkaline phosphatase substrate.

Binder	IC50 [nM]
B1	5

What follows are binders tested against T3, Aβ3-28 monomer (UniProt P05067 674-699) in the same assay as above.
T3 construct: range 3-28 (Aβ numbering)
Protocol: as §1

Binder	IC50 [nM]
B1	2260

What follows are binders tested against T4, AβpE3-40 monomer (UniProt P05067 674-711, pyroglutamate at position 3 (N-terminal residue)) (assay: SPR, antibody immobilised, monomer injected, 1:1 fit).
T4 construct: range 3-40 (Aβ numbering); Synthetic peptide (Bachem/Anaspec), verified monomeric by SEC; also called monomeric AβpE3-40
T4 sequence (P05067 674-711): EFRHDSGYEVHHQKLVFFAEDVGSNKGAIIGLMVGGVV
Protocol: Single cycle kinetics with the antibodies immobilized on a CM5 chip was used to measure the binding of the antibodies to the AβpE3-40 monomer. For the measurements, 5 μg/ml of analyte antibody was immobilized on the chip. […] Regeneration of the surface between cycles was done by injecting 30 μl 3 M MgCl₂. The binding data was fitted to a 1:1 interaction model.
(§2) In all SPR experiments, 1×HBS-EP+ (Cytiva, cat. no. BR100669) was used to dilute antibodies and target antigens. Experiments were performed at 25° C.
(§3) Affinity evaluation and KD determination by surface plasmon resonance: Binding interactions between antigens and antibodies were evaluated by SPR using a Biacore 8K instrument (Cytiva) according to standard procedures.

Binder	Kd [nM]	koff [s⁻¹]	kon [M⁻¹ s⁻¹]
B2	4.04	0.000234	58700
B1	2.2	0.00012	56200
B3	4.62	0.000225	50100
B4	4.72	0.000235	50900

Target: T1, h/m apical domain chimera (SEQ ID …)
Experiment: indirect ELISA: plate coated with 1 µg/ml h/m apical domain chimera, mouse IgG titrated, anti-mouse IgG-HRP; x axis printed as 'TfR (ng/ml)'
Protocol: Plasma samples serially diluted from a starting dilution of 1/450 or hybridoma supernatants diluted 1/2 were added to the plates (50 μl/well; dilution buffer: PBS with 0.1% BSA and 0.05% TWEEN®-20) and incubated for 2 h at room temperature and then the plates were washed four times. […] After another wash (as above), 50 μl/well TMB substrate (K-Blue® Aqueous, Neogen) was added, and the reaction was stopped after 10-15 min with 50 μl/well of 0.5 M H₂SO₄. The optical density at 450 nm was read using a plate reader (Tecan). The endpoint titers were defined as the dilution above the average of the blank wells (background) plus 3 standard deviations of the blank wells.
In the ELISA experiment, human, mouse or three different chimeric TfR1 receptors were used to coat ELISA plates (FIGS. 30A-30E). The ELISA protocol was slightly modified as follows from the indirect ELISA described in Example 15. […] The coated plates were then blocked. Dilution series of mouse IgG of the analyzed antibodies were prepared in PBS and incubated on the ELISA plates. Unbound antibodies were then washed off before incubating wells with a HRP-conjugated secondary, anti-mouse-IgG for 1 h. Plates were then washed again before addition of HRP substrate TMB for development and detection of antibody binding to the wells. TMB development was stopped by adding 0.5 M H₂SO₄ to the wells and ELISA responses measured as the OD at 450 nm in an ELISA plate reader.

Binder	binding result
B5	no binding (tested: about 600 ng/ml)

The binders below were run against T5, Aβ1-42 protofibrils (UniProt P05067 672-713) (assay: inhibition ELISA, antigen titrated in solution, AβpE3-40 coat).
T5 construct: range 1-42 (Aβ numbering); Soluble aggregates made from Aβ1-42 monomer
T5 sequence (P05067 672-713): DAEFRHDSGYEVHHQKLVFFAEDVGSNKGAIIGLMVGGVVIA

Binder	IC50 [nM]
B2	> 132
B1	> 132
B3	> 132
B4	> 132

The binders below were run against T6, Aβ1-40 monomer (UniProt P05067 672-711) in the same assay as above.
T6 construct: range 1-40 (Aβ numbering)
T6 sequence (P05067 672-711): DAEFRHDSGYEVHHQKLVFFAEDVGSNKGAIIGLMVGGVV

Binder	IC50 [nM]
B2	> 500
B1	> 500
B3	> 500
B4	> 500

What follows are binders tested against T7, AβpE3-42 protofibrils (UniProt P05067 674-713, pyroglutamate at position 3 (N-terminal residue)) in the same assay as above.
T7 construct: range 3-42 (Aβ numbering); Soluble aggregates made from AβpE3-42 peptide, purified in the void peak of SEC; also called AβpE3-42 PF
T7 sequence (P05067 674-713): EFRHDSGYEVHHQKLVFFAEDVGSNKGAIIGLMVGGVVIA

Binder	IC50 [nM]
B2	4.9
B1	3.71
B3	4.59
B4	5.44

What follows are binders tested against T4, AβpE3-40 monomer in the same assay as above.

Binder	IC50 [nM]
B2	2.29
B1	2.27
B3	2.54
B4	2.77

Each binder was assayed against T7, AβpE3-42 protofibrils (assay: SPR, protofibrils immobilised, antibody injected, 1:1 fit, apparent).
Protocol: (§4) Single cycle kinetics was also used to measure binding of the antibodies to AβpE3-42 protofibrils. […] Regeneration of the surface between cycles was done by injecting 30 μl 10 mM glycine-HCl pH 1.7. The binding data was fitted to a 1:1 interaction model.
as §2, §3

Binder	koff [s⁻¹]	kon [M⁻¹ s⁻¹]
B2	2.45e-05	57600
B1	1.62e-05	81100
B3	2.54e-05	67700
B4	2.73e-05	57400

The binders below were run against T7, AβpE3-42 protofibrils (assay: SPR, protofibrils immobilised, antibody injected, 1:1 fit, apparent; binding to AβpE3-42 protofibrils; KD in pM).
Protocol: as §4, §2, §3

Binder	Kd [nM]
B2	0.427
B1	0.2
B3	0.376
B4	0.471

The binders below were run against T8, hTfR1 (recombinant, construct not specified) (human, UniProt P02786 89-760, limits assumed) (assay: SPR (Biacore 8K), single-cycle kinetics, hTfR1 captured through its N-terminal DYKDDDDK tag, scFv injected in 5 steps (3-fold, from 700 or 400 nM)).
T8 construct: also called biotinylated hTfR1
T8 sequence (P02786 89-760 limits assumed): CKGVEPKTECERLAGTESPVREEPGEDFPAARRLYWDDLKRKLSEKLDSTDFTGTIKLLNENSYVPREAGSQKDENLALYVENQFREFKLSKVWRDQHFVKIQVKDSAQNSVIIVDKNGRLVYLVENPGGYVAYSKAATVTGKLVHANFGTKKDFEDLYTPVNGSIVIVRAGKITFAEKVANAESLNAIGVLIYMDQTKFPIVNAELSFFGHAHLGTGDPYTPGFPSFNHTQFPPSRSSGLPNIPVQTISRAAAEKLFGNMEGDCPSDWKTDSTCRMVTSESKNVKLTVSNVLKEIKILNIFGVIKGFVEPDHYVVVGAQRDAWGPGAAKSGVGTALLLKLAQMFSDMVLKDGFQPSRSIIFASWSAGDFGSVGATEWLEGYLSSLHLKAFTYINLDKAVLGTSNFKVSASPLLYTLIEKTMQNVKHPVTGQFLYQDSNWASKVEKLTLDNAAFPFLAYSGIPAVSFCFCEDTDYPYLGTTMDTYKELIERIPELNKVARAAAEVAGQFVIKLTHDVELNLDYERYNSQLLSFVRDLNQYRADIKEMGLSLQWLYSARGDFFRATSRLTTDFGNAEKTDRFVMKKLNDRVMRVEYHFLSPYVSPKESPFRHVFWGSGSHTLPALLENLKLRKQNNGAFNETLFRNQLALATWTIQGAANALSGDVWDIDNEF
Protocol: Binding to hTfR1 of six different purified scFv variants from Example 24 was evaluated by surface plasmon resonance (SPR) using Biacore 8K (Cytiva). 30 μg/ml of […] Tag mAb FG4R (Thermo Fisher Scientific, MA1-91878) in 10 mM acetate buffer, pH 4.5 was immobilized on a CM5 sensor chip (Cytiva, #BR100399) using the amine coupling kit type 2 (Cytiva, #BR100633) according to the manufacturer's instruction, resulting in immobilization levels of approximately 10000 RU. hTfR1 was captured via an N-terminal […] tag. To this end, the receptor was injected over the chip with a contact time of 60 s at a flow rate of 10 μl/min. […] Interaction was measured using the single cycle kinetics method with a contact time of 120 s at a flow rate of 30 μl/min followed by a dissociation time of 600 s. Regeneration of the surface between cycles was done by injecting 10 mM glycine-HCl pH 1.7 with a contact time of 30 s and a flow rate of 30 μl/min. The binding modules were diluted in HBS-EP+ (Cytiva, #BR100669). Experiments were performed at 25° C.

Binder	binding result
B6	binds
B7	binds
B8	binds
B9	binds
B10	binds
